The numbers were not newly measured in PMC5033469, which cites them from elsewhere.

What is called Kd is the concentration at which binding is half-saturated.

For the series, the target named is CD11c I domain (Homo sapiens) (UniProt P20702).
CD11c I domain (Homo sapiens), sequence (P20702 165-339): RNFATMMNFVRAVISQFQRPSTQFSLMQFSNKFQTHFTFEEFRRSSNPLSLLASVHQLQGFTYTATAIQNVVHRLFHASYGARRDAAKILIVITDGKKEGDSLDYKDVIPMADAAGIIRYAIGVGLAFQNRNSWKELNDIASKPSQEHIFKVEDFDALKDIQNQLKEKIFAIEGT

fibrinogen, sequence (P02671 36-866): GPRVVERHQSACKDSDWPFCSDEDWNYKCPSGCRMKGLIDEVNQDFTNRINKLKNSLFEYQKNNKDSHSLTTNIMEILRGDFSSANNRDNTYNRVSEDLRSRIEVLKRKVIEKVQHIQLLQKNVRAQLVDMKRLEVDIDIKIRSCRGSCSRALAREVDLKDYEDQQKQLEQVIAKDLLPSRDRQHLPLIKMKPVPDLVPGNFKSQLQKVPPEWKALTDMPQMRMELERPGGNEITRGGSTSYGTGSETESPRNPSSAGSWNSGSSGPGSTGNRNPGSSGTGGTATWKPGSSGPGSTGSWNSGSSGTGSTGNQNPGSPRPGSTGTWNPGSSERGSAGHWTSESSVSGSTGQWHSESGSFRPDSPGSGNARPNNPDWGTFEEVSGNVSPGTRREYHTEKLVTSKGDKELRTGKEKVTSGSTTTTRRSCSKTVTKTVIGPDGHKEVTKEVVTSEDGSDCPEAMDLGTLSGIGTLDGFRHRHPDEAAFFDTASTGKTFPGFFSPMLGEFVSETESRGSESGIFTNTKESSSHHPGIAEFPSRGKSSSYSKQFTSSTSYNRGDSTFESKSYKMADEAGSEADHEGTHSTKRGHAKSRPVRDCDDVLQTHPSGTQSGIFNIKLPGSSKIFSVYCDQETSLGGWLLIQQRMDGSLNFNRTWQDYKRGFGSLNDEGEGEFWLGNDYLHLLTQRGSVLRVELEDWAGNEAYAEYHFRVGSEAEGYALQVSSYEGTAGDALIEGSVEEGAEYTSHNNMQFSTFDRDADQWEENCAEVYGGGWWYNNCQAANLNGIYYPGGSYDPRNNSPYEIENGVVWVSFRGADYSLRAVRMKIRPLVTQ
fibrinogen, sequence (P02675 45-491, further chain): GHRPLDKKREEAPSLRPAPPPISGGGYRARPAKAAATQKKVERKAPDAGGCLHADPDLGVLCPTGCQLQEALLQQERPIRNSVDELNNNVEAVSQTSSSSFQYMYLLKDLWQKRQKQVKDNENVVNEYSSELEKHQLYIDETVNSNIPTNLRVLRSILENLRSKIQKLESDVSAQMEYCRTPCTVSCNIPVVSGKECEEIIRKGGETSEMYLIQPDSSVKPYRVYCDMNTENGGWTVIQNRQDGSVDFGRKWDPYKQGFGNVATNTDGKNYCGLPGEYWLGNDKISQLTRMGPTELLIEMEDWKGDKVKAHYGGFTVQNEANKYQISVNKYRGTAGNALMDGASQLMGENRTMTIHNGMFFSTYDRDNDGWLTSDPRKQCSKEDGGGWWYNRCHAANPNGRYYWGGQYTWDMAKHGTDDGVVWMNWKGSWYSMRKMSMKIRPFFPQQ
fibrinogen, sequence (P02679 27-453, further chain): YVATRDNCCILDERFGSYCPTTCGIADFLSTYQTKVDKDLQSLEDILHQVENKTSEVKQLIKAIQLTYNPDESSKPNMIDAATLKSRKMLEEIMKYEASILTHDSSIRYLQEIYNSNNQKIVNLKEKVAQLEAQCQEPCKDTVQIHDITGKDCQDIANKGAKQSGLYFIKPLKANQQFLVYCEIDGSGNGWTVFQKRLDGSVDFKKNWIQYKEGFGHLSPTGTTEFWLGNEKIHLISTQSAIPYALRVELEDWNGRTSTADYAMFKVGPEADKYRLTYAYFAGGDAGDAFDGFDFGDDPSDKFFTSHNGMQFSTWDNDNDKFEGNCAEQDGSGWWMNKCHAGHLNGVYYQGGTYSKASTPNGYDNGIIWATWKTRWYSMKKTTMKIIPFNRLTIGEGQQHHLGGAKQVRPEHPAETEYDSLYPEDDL

As for fibrinogen (from UniProt P02671), the Kd was 50 µM.
